Laboratory results reported in the nanobody polyreactivity screen of Harvey et al. (2022).

Assay: yeast display, Sf9 membrane polyspecificity reagent, FACS + sequencing; frameworks hold sequencing errors
In short: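 Genes from sorted yeast were amplified by colony PCR, read by MiSeq 2 × 250 sequencing and filtered on CDR length. These cells carried a synthetic nanobody library in Saccharomyces cerevisiae BJ5465 and were sorted by FACS into low and high (top ~1%) gates on anti-HA and streptavidin fluorescence. Polyreactivity is labelled according to the gate of origin.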

## QVQLVESGGGLVQAGGSLRLSCAASGRTFRYYAMGWYRQAPGKERELVAAISVRTGSTSYADSVKGRFTISRDNAKNTVYLQMNSLKPEDTAVYYCNAPQPGKGRTRTRYYYWGQGTQVTVSS
  polyreactivity (PSR sort gate): high polyreactivity

## QVQLVESGGGLVQAGGSLRLSCAASGFIFRSYAMGWYRQAPGKERELVAAITHTGTTYYADSVKGRFTISRDNAKNSVYLQMNSLKPEDTAVYYCNANYYRTHYVYWGQGTQVTVSS
  polyreactivity (PSR sort gate): high polyreactivity

## QVQLVESGGGLVQAGGSLRLSCAASGSIFWTNAMGWYRQAPGKERELVAAIRVSTGSTYYADSVKGRFTISRDNAKNTVYLQMNSLKPEVTAVYYFAARTYGWGYDYWGQGTQVTVSS
  polyreactivity (PSR sort gate): low polyreactivity

## QVQLVESGGGLVQAGGSLRLSCAPYGLTFYGYTMGWYIQAPGKQRELVASISWSGGNKYYADSVKGRFTISRDKAKNSVYLQMNSLKPEDTAVYYCAAEHWTYDCVDYWGQGTQVTVSW
  polyreactivity (PSR sort gate): low polyreactivity

## QVQLVESGGGLVQAGGSLRLSCAASGSTFASYAMGWYRQAPGKERELVAAIRWRGGTTYYADSVKGRFTISRDNAKNTVYLQMNSLKPEDTAVYYCNADRYYLYYYWGQGTQVTVSS
  polyreactivity (PSR sort gate): low polyreactivity

## QVQLVESGGGLVQAGGSLRLSCAASGRIFWVNAMGWYRKAPGKERELVARIRGRSGSTYYADSVKGRFTISRDNAKNPVYLQMNSLKREDTAVYYCAAREFRRPDIFLRDYWGQGTQVTVSS
  polyreactivity (PSR sort gate): high polyreactivity

## QVQLVESGGGLVQAGGSLRLSCAASGSTFAYNAMGGYRKAPGKERELVATISTDGSTYADSVKGRFTISRDNAKNTVYLQMNSLKPEDTAVYYCNADGHPSDPGYDYWGQGTHVTVSS
  polyreactivity (PSR sort gate): low polyreactivity

## QVQLVESGGGLVQAGGSLRLSCAASGGTLRRYAMGWYRQAPGKERELVAAIIDRSGSTSYADSVKGRFTISRDNAKNTVYLQMNSLKPEDTAVYYCAARTYRTRYYYWGQGTQVTVSS
  polyreactivity (PSR sort gate): high polyreactivity

## QVQLVESGGGLVQAGGTLRLNSAASGRNFYDYAMRWYRQAPGKERELVASISGGGSTDYADSVKGRFTISRDNAKNTVDFQMNSLNPEDTAVYYCAAQYYLYRSRFDYWGQGTQVTVSS
  polyreactivity (PSR sort gate): high polyreactivity

## QVQLVESGGGLVQAGGSLRLSCAASGFTFYRNAMGWYRQAPGKERELVARISRGGSTNYADSVKGRFTISRDNAKNTVYLQMNSLKPEDTAVYYCNRDYYVGRYDYWGQGTQVTVSS
  polyreactivity (PSR sort gate): high polyreactivity

## QGQLVESGGGLVQAGGSLRLSCAASGFIFSKYAMGWYRQAPGKERELVAAISYRTVRTYYADSVKGRFTISRDNAKNTVDLQMNSLKPEDTAVYYCAADSRYWLYDYWGQGTQVTVSS
  polyreactivity (PSR sort gate): high polyreactivity

## QVQLVESGGGLVQAGGSLRLTCAASGRTFGINAMGWYRQAPGKERELVAAIDSIDGTTYYADSVKGHFTISRDNAKNTVYLPMNRLKPAATAVYYCAAEFISSYDYWGQGTQVTVSS
  polyreactivity (PSR sort gate): high polyreactivity

## QVQLVESGGGLVQAGGSLRLSCAASGSIFGYYAMGWYRQAPGKERELVASISGSGGTTYYADSVKGRFTISRDNAKNTVYLQMNSLKPEDTAVYYCAARRSMYGYPFVTSRRGYWGHGTQVTVSS
  polyreactivity (PSR sort gate): high polyreactivity

## QGQLVESGGGLVQAGGRLRLSCAASGSIFASYAMGWYRQAPGKERELVAAITSDGNTYYADSVKGRFTISRDNAKNTVYLQMNSLKPEDTAVYYCAADRYSTYPYAKGTEFYYWGQGTQVTVSS
  polyreactivity (PSR sort gate): low polyreactivity

## QVQLVESGGGVVQPGGSLSLSCAGSGITFWYYDLVWSRQAPGKERELVATITSSGSTYYADSVKGRFTISRDNAKNTVYLQKNSLKPEDTAVYFCAPQYGYSYYSGRYGYWGQGTQVTVSS
  polyreactivity (PSR sort gate): high polyreactivity

## QVQLVESGGGLVQAGGSLRLSCAASGSTFYYYAMGWYRQAPGKERELVAAISTSDGSTYYADSVKGRFTISRDNAKNTVYLQMNSLKPEDTAVYYCAAESYERFPSYYYWGQGTQVTVSS
  polyreactivity (PSR sort gate): low polyreactivity

## QVQLVESGGGLVQAGGSLRLSCAASGSIFYENAMGWYRQAPGKERELVAAISWNAGSTYYADSVKGRFTISRDNAKNTVYFQMNSLKPEDTAVYYCATTADGIRYDYWGQGTQVTVSS
  polyreactivity (PSR sort gate): low polyreactivity

## QVQLVESGGGLVQAGGSLRLSCAASGFIFYPYAMGWYRQAPGKERELVAVIRWSGGRTYYADSVKGRFTISRDNAKNTVYLQMNSLKPEDTSVYYCNARKITRYAVGPRKLGDYWGQGTQVTVTS
  polyreactivity (PSR sort gate): high polyreactivity

## QDQLVESGGGLVQAGGSLRLSCAASGSILLLNMGWYRQAPGKEMELVASIRWSGGITYYADSVKGRFTISRDNAKNTVYLQMNSLKPEDTAVYYCAARTYRYFGRYDYWGQGTQVTVSS
  polyreactivity (PSR sort gate): high polyreactivity

## QVQLVESGGGLVQAGGSLRLSCAASGSSFRAYAMGWYRQAPGKERELVAVITYSGDRTYYADSVKGRFTISRDNAKNTVYLQMNSLKPEDTAVYYCAADLQYWHSYSYDDYYYWGQGTQVTVSS
  polyreactivity (PSR sort gate): low polyreactivity

## QVQLVESGGGIVQAGGSLRLSCAASGRTFSIYAMGWYRQAPGKERELVASITNSDGSTYYADSVKGRFTISRDNAKNTVYLQMNSLKPEDTAVYYCNDDSGISRVKYGYWGQATQVTVSS
  polyreactivity (PSR sort gate): low polyreactivity

## QVQLVESGGGLVQAGGSLRLSSAASGRTFEGYAMGWYRQAPGKERELVAAISGSSGSTYYADSVKGRFTISRDNAKNTVYLQMNSLKPEDTAVYYCNADYDWPGGSDYWGQGTQVTVSS
  polyreactivity (PSR sort gate): low polyreactivity

## QVQLVESGGGLVQAGGSLRLSCAASGRTFGQNAMGWYRQAPGKERELVASIRSGGITDYADSVKGRFTISRDNAKNTVYLQMNSLKPEDTAVYYCNDEGVWWSTRYDSWGQGTQVTVSS
  polyreactivity (PSR sort gate): low polyreactivity

## QVQLVESGGGLVQAGGSLRLSCAASGSIFPYNAMGWYRQPPGKERELVATISSGGSTNYADSVKGRFTISRDNAKNTVYLQMNSLKPEDTAVFYCAADVIVFYYAPNYWGDIEYGYWGQGTQVTVSS
  polyreactivity (PSR sort gate): low polyreactivity

## QVQLVETGGGLVQAGGSLRLSSAGSGSISYAYAMGWYRQARGKEREFVAAITDSGGSTYYADSVKGRFTISRDNAKNTVYSQMNSLKPEDTAVYYCAAGGPWWSGYYYWGQGTQVTVSS
  polyreactivity (PSR sort gate): low polyreactivity

## QVQLVESGGGLVQAGGSLRLSCAASGFIFDGYAMGWYRQAPGKERELVAAIDSGGDRTYYADSVKGRFTISRDNAKYTVYLQMNSLKPEDTAVYYCAADSSDPTGYDYWGQGTQVTVSS
  polyreactivity (PSR sort gate): low polyreactivity

## QVQLVESGGGLVQAGGSLRLSCAASGSTLAQYAMGWYRQAPGKERELVAAISRRGASTYYADSVKGRFTISRDNAKNTGYLQMNSLKPEDTAVYYCNAVRGEKMGYWGQGTQVTVSS
  polyreactivity (PSR sort gate): high polyreactivity

## QVQLVESGGGLVQAGRSLRLSCAASGITFKLYAMGWYRQAPGKERELVARLSLRGGNTYYADSVKVRFTISRDNAKTTVYLQMNSQNPEDTAVYYCNADLYRQYASRYHYWGQGSQVTVSS
  polyreactivity (PSR sort gate): high polyreactivity

## QVQLVESGGGLVQAGGSLRLSCAASGLISYAYAMGWYRQAPGKERELVAAIRSSGSTYYADSVKGRFTISLDNAKNTVYLQMNSLKPEDTAVYYCAKRNPIKYYGGGYWGQGTQVTVSS
  polyreactivity (PSR sort gate): high polyreactivity

## QVQLVESGGGLVQAGGSLRLSCAASAIIFDGNTMGWYRQAPGKEREFVAAISRNGGTTSYADSVKGRFTISRDNAKNTVYLQMNSLKPEDTAVYYCAADVETFWGWRYEYWGQGTQVTVSS
  polyreactivity (PSR sort gate): low polyreactivity

## QVQLVESGGGLVQAGGSLRLSCAASGRIFNRYAMGWYRQAPGKERELVAAITTSADSTYADSVKGRFTISRDNAKNTVYLQMNSLKPEDTAVYYCNVASRQGSTYDYWGQGTQVTVSS
  polyreactivity (PSR sort gate): high polyreactivity

## QVQLVESGGGLVQAGGSLRLSCAASGSIFLLYAMGWYRQAPGKERELVAAISYSGGATYYADSVKGRFTISRDNAKYTVYLQMNILKPEDTAVYYCAAEAYDDYDYWGQGTQVTVSS
  polyreactivity (PSR sort gate): low polyreactivity

## QVQLVESGGGLVQEGGSLRLSCAASGSIFWPNAMGWYRQAPGKERELVAAISWGTGSTYYADSVKGRFTISRDNAKNTVYLQINSLKPEDSAVYYCNAEYVVAFGYQYGEYDYWGQGTQVTVSS
  polyreactivity (PSR sort gate): low polyreactivity

## QVQLVESGGGLVQAGGSLRLSCAASGYTFSDNAMGWYRQAPGKERELVAAITSGVSTYYADSVKGRFTISRDNAKNTVYLQMNSQKPEDTAVYYCAKEVAVFADLYQGAPYGYWGQGTQVTVSS
  polyreactivity (PSR sort gate): low polyreactivity

## QVQLVDSGGGLVQAGGSLRLSCAASGYIFGDYVMGWYRQAPGKERELVASISSSGDTNYADSVKGRFTISRDNAMNTVYLQMNSLKPEDTAVYYCAAVDWIGRVHGKPWGGDYWGQGTQVTVSS
  polyreactivity (PSR sort gate): low polyreactivity

## QVQLVESGGGLVQAGGSLRLSCAASGFIFADNTMGWYRQAPGKERELVAAISRRGGSTYYADSVKGRFTISRDNAKNTVYLQMNSLKPEDTAVYYCAARPFVKHDYWGQGTQVTVSS
  polyreactivity (PSR sort gate): high polyreactivity

## QVQLVESGGGLVQAGGSLRLSCAASGFIFTRYAMGWYRQAPGKERELVAAISWSGGSTYYADSVKGRFTISRDNAKNTVYLQMNSLKPEDTAVYYCAADGSDSYDYWGQGTQVTVSS
  polyreactivity (PSR sort gate): low polyreactivity

## QVQLVESGGGLVQAGGSLRLSCAASGSTFQTYVMGWYRQAPGKERELVAAISSGGSTNYADSVKGRFTISRDNAKNTVYLQMISLKPEDTAVYYCAKRWPYFRRGKDGYWGQGTQVTVSS
  polyreactivity (PSR sort gate): low polyreactivity

## QVQLVETGGGLVQAGGSLRLSCAASGRIFVGYAKGWYRQAPGKERELVAAISARGGSTYYADSVKGRFTISRDNAKNTVYLQMNSLKPEDTAVYYCAADEASSRGYYDYDYWGQGTQVTVSS
  polyreactivity (PSR sort gate): low polyreactivity

## QVQLVESGGGLVQAGGSLRLSCAASGSIFRINDMGWSRQAPGKERELVAAITFSGGSTYADSVKGRFTISRDNAKNTVYLQMNSLKPEDTAVYYCNADGAYWTDYYLYDYWGQGTQVTVSS
  polyreactivity (PSR sort gate): low polyreactivity

## QVQLVESGGGLVQAGGSLRLSCAASGSTLPVNAMGWYRQAPGKERELVAAINRDGSTNYADSVKRPFTISRDNAKNNVYLQMNCLKPDDTAVYYCGADGFGYPGKRYDYWGHGTQVTVSS
  polyreactivity (PSR sort gate): low polyreactivity

## QDQLVVSGGGLVQAGGSLRLSCAAYGFIVRSYDMGWYIQAPGKEREMVAAITSDVNSYYADSVKGRFTISRDNAKNTVYLQMNSLKPEDTAVYYFNADAVVYRDYQDYDYWGQGTQVTVSS
  polyreactivity (PSR sort gate): low polyreactivity

## QDQLVESAGGLVQAGGSLRLICAATGSNFNRYAMGWYRQAAGKEREFVAAITRRGGNTYYADSVKGRFTISRDHPKNTVYLQMNSLKPVDTAVYYCAAPFYFPAGLLYYENNYWGHGTQVTVSS
  polyreactivity (PSR sort gate): high polyreactivity
